Data: patent US20150299322A1 (Dana-Farber, published 2015)

B2: mouse PD-1 (mPD-1) expressed on transfected 300 cells (receptor, UniProt Q02242 25-288, looked up)
chain: LEVPNGPWRSLTFYPAWLTVSEGANATFTCSLSNWSEDLMLNWNRLSPSNQTEKQAAFCNGLSQPVQDARFQIIQLPNRHDFHMNILDTRRNDSGIYLCGAISLHPKAKIEESPGAELVVTERILETSTRYPSPSPKPEGRFQGMVIGIMSALVGIPVLLLLAWALAVFCSTSMSEARGAGSKDDTLKEEPSAAPVPSVAYEELDFQGREKTPELPTACVHTEYATIVFTEGLGASAMGRRGSADGLQGPRPPRHEDGHCSWPL
notes: whole, on cells; also called 300-mPD-1 cells; mPD-1 cells

Legend:
[1] = molecular target: T1, mRGMb-Ig fusion protein (mRGMb-mIgG2a) (mouse, UniProt Q7TQ33 49-415, limits assumed); test: flow cytometry on mPD-L2 transfected 300 cells
T1 construct: extracellular domain; Purified from CHO cell culture supernatants
T1 sequence (looked up): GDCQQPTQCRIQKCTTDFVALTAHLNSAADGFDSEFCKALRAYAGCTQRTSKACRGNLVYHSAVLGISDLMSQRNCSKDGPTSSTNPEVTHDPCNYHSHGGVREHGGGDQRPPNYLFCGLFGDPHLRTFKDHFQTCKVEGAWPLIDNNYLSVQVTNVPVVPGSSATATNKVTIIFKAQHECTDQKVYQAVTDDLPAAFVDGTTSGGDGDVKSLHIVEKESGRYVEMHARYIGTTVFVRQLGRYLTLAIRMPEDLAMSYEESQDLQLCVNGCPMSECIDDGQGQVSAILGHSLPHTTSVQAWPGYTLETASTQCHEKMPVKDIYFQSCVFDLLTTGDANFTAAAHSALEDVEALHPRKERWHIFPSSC

[2] = molecular target: B2; test: cell conjugation assay, flow cytometry
Procedure: (§1) An assay for receptor-ligand binding was developed based on cell to cell binding as determined by flow cytometry. One transfected cell type was labelled with the red dye PKH26 (Sigma) and the other transfected cell with the green dye PKH67 (Sigma) according to the manufacturer's instructions. Red dye-labelled and green dye-labelled cells ([…] each cell type) were incubated in 200 μl of HBSS buffer without calcium and magnesium (GIBCO) supplemented with 10% heat-inactivated FBS (Invitrogen), 15 μg/ml gentamicin (Invitrogen) and 1% HEPES (Invitrogen) in a round bottom 96-well plate for 45 min at 37° C. When the cell conjugation assay was used to test the blocking capacity of antibodies, one transfected cell type was pre-incubated 30 min at RT with antibodies before adding the other type of transfected cells. Conjugate formation was analyzed immediately by flow cytometry using the PE channel for the red dye and the FITC channel for the green dye. The automated plate harvester of the FACSCanto (BD Biosciences) was used for uniformity of cell processing. The instrument settings were as follows, throughput mode: standard, loader settings: sample flow rate at 0.5 μl/second, sample volume and mixing volume at 100 μl, mixing speed at 50 μl/second, number of mixes at 2, and wash volume at 400 μl.
(§2) To test the RGMb:PD-L2 interaction under more physiologic conditions, a cell conjugation assay was used where one transfected cell type was labeled with a red dye and the other transfected cell type with a green dye. The binding of the two cell types was assessed by flow cytometry and indicated by double positive events (yellow dots). […] FIGS. 1L, 1N, 1P, and 1R show only the dot plots without corresponding FSC-SSC plots. As expected, mRGMb cells bound to mPD-L2 cells (FIG. 1K), but not mPD-L1 cells (FIG. 1L). As positive controls, mPD-1 cells bound to both mPD-L2 and mPD-L1 cells (FIGS. 1M-1N). Negative control binding assays had very few conjugates (<0.3%) (FIGS. 1O-1R).

[3] = molecular target: T2, mouse RGMb (mRGMb) expressed on transfected cells (mouse, UniProt Q7TQ33 49-415); test: cell conjugation assay, flow cytometry
T2 construct: whole, on cells; Also used for mRGMb in cell lysates (Western blot); also called DRAGON; 300-mRGMb cells
T2 sequence (looked up): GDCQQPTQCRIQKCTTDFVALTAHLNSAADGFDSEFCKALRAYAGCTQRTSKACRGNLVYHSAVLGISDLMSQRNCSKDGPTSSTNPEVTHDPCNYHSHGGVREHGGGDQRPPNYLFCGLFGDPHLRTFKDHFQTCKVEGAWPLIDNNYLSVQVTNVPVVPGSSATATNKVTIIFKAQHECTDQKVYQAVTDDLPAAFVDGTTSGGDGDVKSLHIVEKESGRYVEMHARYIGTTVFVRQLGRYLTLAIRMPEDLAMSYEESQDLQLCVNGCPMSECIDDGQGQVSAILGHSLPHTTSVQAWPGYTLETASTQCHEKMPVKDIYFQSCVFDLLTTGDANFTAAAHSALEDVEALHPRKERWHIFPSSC
Procedure: as §1, §2

[4] = molecular target: T3, mouse PD-L1 (mPD-L1) expressed on transfected 300 cells (mouse, UniProt Q9EP73 19-290); test: cell conjugation assay, flow cytometry
T3 construct: whole, on cells; also called 300-mPDL 1; mPD-L1 cells
Procedure: as §1, §2

[5] = molecular target: T4, recombinant mRGMb-HIS (R&D) (mouse, UniProt Q7TQ33 49-415, limits assumed); test: ELISA, coated BMP-2, mRGMb-HIS bridging PD-L2-Ig
T4 construct: Bought from R&D; not shown: HIS tag
T4 sequence (looked up): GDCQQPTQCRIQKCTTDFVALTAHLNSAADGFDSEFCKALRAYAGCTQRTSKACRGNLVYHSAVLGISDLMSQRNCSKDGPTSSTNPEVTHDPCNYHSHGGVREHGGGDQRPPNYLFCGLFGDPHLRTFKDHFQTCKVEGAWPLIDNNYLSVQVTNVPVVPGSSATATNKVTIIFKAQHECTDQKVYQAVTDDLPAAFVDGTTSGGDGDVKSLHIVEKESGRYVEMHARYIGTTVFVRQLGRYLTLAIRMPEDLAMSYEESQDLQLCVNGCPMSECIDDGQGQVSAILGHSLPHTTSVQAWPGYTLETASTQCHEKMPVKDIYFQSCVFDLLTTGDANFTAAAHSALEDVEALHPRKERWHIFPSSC
Procedure: (§3) To determine if RGMb binds PD-L2 and BMP-2/4 simultaneously, 96-well ELISA plates were coated with BMP-2/4 as above. mPD-L2-hIgG1/IgA, mPD-L2-hIgG (R&D), mPD-L1-hIgG (R&D) or control-Ig fusion proteins at 10 μg/ml were preincubated with 10 μg/ml mRGMb-HIS (R&D) or buffer alone for 15 min. at room temperature (RT), then added to the plates and incubated for 1h at 37° C. Alternatively, 10 μg/ml mRGMb-HIS (R&D) or buffer alone was added first to the plates and incubated for 1h at 37° C. After wash, mPD-L2-Ig or control-Ig fusion proteins were added and incubated for 1h at 37° C. Fab₂ goat anti-hIgG-HRP (Jackson ImmunoResearch Laboratories) at 1:10000 was used for detection.
(§4) To test if RGMb can bind both PD-L2 and BMP at the same time, an ELISA was performed to analyze the binding capacity of PD-L2-Ig fusion protein to immobilized BMP-2/4 in the presence or absence of RGMb. PD-L2 could not directly bind to BMP-2/4, but in the presence of RGMb could form a complex with BMP when RGMb and PD-L2-Ig were added simultaneously (FIG. 4A-4B) or sequentially to BMP-2/4.

[6] = molecular target: T5, mPD-L2-Ig fusion protein (construct not told at the result) (mouse, UniProt Q9WUL5 20-221); test: ELISA, coated BMP-2, PD-L2-Ig added without RGMb
T5 construct: extracellular domain; not shown: Ig part: the methods name mPD-L2-hIgG1/IgA, mPD-L2-mIgG2a/IgA and mPD-L2-hIgG (R&D)
T5 sequence (looked up): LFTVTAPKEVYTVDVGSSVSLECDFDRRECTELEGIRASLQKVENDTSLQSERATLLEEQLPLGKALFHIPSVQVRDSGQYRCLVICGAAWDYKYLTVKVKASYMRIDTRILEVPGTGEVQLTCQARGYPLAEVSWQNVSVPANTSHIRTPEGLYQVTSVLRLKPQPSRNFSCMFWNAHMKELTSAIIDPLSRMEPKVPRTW
Procedure: as §3, §4

[7] = molecular target: T4, recombinant mRGMb-HIS (R&D); test: ELISA, coated BMP-4, mRGMb-HIS bridging PD-L2-Ig
Procedure: as §3, §4

[8] = molecular target: T5, mPD-L2-Ig fusion protein (construct not …); test: ELISA, coated BMP-4, PD-L2-Ig added without RGMb
Procedure: as §3, §4

[9] = molecular target: T6, recombinant hRGMb-HIS (R&D) (human, UniProt Q6NW40 46-413); test: ELISA, coated hRGMb-HIS, PD-L2-Ig in solution
T6 construct: Bought from R&D; not shown: HIS tag
T6 sequence: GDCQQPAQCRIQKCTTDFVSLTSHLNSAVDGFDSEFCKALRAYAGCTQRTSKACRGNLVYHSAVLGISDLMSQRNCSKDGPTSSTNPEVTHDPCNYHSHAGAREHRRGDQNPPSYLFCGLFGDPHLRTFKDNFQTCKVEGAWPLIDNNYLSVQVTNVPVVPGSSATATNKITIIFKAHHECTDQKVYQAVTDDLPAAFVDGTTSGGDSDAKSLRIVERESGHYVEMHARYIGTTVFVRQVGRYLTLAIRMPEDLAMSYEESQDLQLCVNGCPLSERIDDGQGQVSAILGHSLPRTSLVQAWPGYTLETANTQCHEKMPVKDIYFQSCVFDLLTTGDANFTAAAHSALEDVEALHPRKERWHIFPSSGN
Procedure: (§5) To examine RGMa/RGMb/RGMc and PD-L2 interaction, 96-well ELISA plates were coated with 2 or 5 μg/ml of recombinant mRGMa-HIS, mRGMb-HIS, mRGMc-HIS, or hRGMb-HIS (R&D). Then, serial dilutions of mPD-L2-hIgG1/IgA, mPD-L2-mIgG2a/IgA, hPD-L2-mIgG2a or control-Ig fusion proteins were added and incubated for 1h at 37° C. Fab₂ goat anti-hIgG-HRP (Jackson ImmunoResearch Laboratories) or rat anti-mIgG2a-HRP (BD Biosciences) at 1:1000 or 1:10000 were used for detection.

[10] = molecular target: T4, recombinant mRGMb-HIS (R&D); test: ELISA, coated mRGMb-HIS, PD-L2-Ig in solution
Procedure: as §5

T3 sequence (Q9EP73 19-290): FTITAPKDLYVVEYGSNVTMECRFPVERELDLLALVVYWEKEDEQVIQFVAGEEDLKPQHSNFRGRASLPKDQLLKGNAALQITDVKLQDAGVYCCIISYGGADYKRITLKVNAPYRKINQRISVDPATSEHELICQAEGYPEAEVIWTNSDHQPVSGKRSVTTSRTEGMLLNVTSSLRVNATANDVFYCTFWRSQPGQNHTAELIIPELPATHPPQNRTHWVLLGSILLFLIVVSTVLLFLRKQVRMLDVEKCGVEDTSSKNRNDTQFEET

B1: mouse PD-L2 (mPD-L2) expressed on transfected 300 cells (ligand, UniProt Q9WUL5 20-247, looked up)
chain: LFTVTAPKEVYTVDVGSSVSLECDFDRRECTELEGIRASLQKVENDTSLQSERATLLEEQLPLGKALFHIPSVQVRDSGQYRCLVICGAAWDYKYLTVKVKASYMRIDTRILEVPGTGEVQLTCQARGYPLAEVSWQNVSVPANTSHIRTPEGLYQVTSVLRLKPQPSRNFSCMFWNAHMKELTSAIIDPLSRMEPKVPRTWPLHVFIPACTIALIFLAIVIIQRKRI
notes: whole, on cells; also called 300-mPD-L2 cells; mPD-L2 transfected cells
binding result [1]: binds
binding result [2]: binds
binding result [3]: binds

B2
binding result [4]: binds

B3: recombinant mouse BMP-2 (GIBCO) (ligand, UniProt P21274 281-394, looked up)
chain: QAKHKQRKRLKSSCKRHPLYVDFSDVGWNDWIVAPPGYHAFYCHGECPFPLADHLNSTNHAIVQTLVNSVNSKIPKACCVPTELSAISMLYLDENEKVVLKNYQDMVVEGCGCR
notes: Coated on ELISA plates at 1 ug/ml; also called mBMP-2; BMP-2/4
binding result [5]: binds
binding result [6]: no binding (tested: 10 ug/ml)

B4: recombinant mouse BMP-4 (R&D) (ligand, UniProt P21275 293-408, looked up)
chain: SPKHHPQRSRKKNKNCRRHSLYVDFSDVGWNDWIVAPPGYQAFYCHGDCPFPLADHLNSTNHAIVQTLVNSVNSSIPKACCVPTELSAISMLYLDEYDKVVLKNYQEMVVEGCGCR
notes: Coated on ELISA plates at 1 ug/ml; also called mBMP-4; BMP-2/4
binding result [7]: binds
binding result [8]: no binding (tested: 10 ug/ml)

B5: hPD-L2-mIgG2a fusion protein (Fc fusion)
chain: LFTVTVPKELYIIEHGSNVTLECNFDTGSHVNLGAITASLQKVENDTSPHRERATLLEEQLPLGKASFHIPQVQVRDEGQYQCIIIYGVAWDYKYLTLKVKASYRKINTHILKVPETDEVELTCQATGYPLAEVSWPNVSVPANTSHSRTPEGLYQVTSVLRLKPPPGRNFSCVFWNTHVRELTLASIDLQSQMEPRTHPT
notes: not shown: mouse IgG2a part
binding result [9]: binds
binding result [10]: binds
